Measurements: patent US20150191542A1 (INNATE PHARMA S A, published 2015)
Where a chain is given by its changes, count along the chain named.

How the values were obtained:
[1] = target: T1, MICA*001 extracellular domain α3 recombinant protein (human, UniProt Q29983 205-297); experiment: ELISA, 3 µg/ml recombinant protein coated
T1 construct: also called MICA extracellular domain α3 recombinant protein; α3 domain of MICA
T1 sequence: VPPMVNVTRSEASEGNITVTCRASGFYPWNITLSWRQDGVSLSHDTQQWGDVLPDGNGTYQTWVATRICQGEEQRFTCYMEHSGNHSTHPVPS
Description: 3 μg/ml of the indicated MICA recombinant proteins were coated overnight in 96-well plates in PBS 1× at 4° C. All subsequent steps were performed at room temperature. After washes with PBS 1×/Tween 0.05%, plates were saturated for an additional 2 hours in PBS 1×/BSA 1%. Two additional washes were performed prior adding the tested anti-MICA mAb in PBS 1×/BSA 1% for 2 hours. Antibodies were washed and a horseradish peroxidase conjugated goat polyclonal anti-mouse IgG (GAM-HRP) in PBS 1×/BSA 1% was added for 1 hour. Final washing steps were performed and TMB substrate was added to reveal the ELISA (5 to 20 min in the dark) and 1M HCl was added to stop the enzymatic reaction. O.D. was measured at 450 nm.
9C10 binds to MICA extracellular domain recombinant-protein but not MICA extracellular domain α3 recombinant protein. Antibody 16A8, however, bound to both MICA extracellular domain recombinant protein […] MICA extracellular domain α3 recombinant protein. Therefore, it can be concluded from this ELISA experiment that the binding site on MICA of 9C10 antibodies includes the α1 and/or α2 domains while antibody 16A8 binds to MICA within the α3 domain. […] BAMO1 is a commercially available anti-MICA specific for α1α2 domain and BAMO3 is a commercially available anti-MICA specific for α3 domain.

[2] = target: T2, MICA*004 expressed on C1R transfectant cells (human, UniProt Q29983 24-297, Glycosylated on cells; the letters do not carry this.); experiment: flow cytometry on C1R-MICA*004 cells, 3-parameter logistic fit
T2 construct: also called C1R-MICA*004; C1R-MICA*04
T2 chain: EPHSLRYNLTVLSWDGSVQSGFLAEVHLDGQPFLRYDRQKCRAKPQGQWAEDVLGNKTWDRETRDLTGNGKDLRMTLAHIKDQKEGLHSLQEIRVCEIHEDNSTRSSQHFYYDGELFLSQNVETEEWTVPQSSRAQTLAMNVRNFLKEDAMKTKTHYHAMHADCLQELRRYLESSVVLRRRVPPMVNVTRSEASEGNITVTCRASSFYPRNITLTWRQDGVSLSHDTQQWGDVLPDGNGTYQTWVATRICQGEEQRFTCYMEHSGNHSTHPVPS
Description: (§1) The binding of antibodies obtained from the first and second immunization series (including 9C10, 20C6 and 16A8) were tested for binding to MICA-expressing CR1 transfectant cells C1R-MICA*001, C1R-MICA*004, C1R-MICA*007 and C1R-MICA*008 (Pr. A. Steinle, Eberhard-Karls University Tuebingen, Germany) described in Salih et al. (2003) Blood 102(4): […]. Binding was analyzed by flow cytometry.
(§2) Cells were harvested and stained in PBS 1×/BSA 0,2%/EDTA 2 mM buffer during 30 minutes at 4° C. using a dose-range of the anti-MICA mAbs. After two washes in staining buffer, cells were stained for 30 min at 4° C. with goat anti-mouse (H+L)-PE polyclonal antibodies (1/200). After two washes, stainings were acquired on a BD FACS Canto II and analyzed using the FlowJo software.
Antibodies 9C10, 20C6 and 16A8 bound to each of the C1R-MICA*001, C1R-MICA*004, C1R-MICA*007 and C1R-MICA*008 cells (see FIGS. 3A, 3B and 3C for antibodies 9C10, 20C6 and 16A8 respectively). […] EC50 values are shown in Table C in μg/ml (calculated using a 3-parameter logistic fit).

[3] = target: T3, recombinant human MICA extracellular domain recombinant-Fc protein (MICA*019 allele) (human, UniProt Q29983 24-297); experiment: SPR Biacore T100, biotinylated antibody captured on CAP chip, MICA*019-Fc injected; bivalent mean KD at pH 7.4; on MICA*019-Fc; bivalent, pH 7.4
T3 construct: Bought from R&D Systems; also called MICA*019-Fc; MICA-Fc; not shown: Fc part of the bought fusion protein (R&D Systems)
T3 chain: T2 chain with V122L, R181T, T213I, Q251R
Description: The binding of 9C10, 20C6 and 16A8 to either recombinant human MICA extracellular domain recombinant protein monomers or dimers (MICA*019 allele-Fc protein or MICA*001-His protein) as well as other NKG2D ligands MICB and ULBP1-2 was analyzed by Surface Plasmon Resonance (SPR) using a Biacore T100 apparatus to obtain monovalent and bivalent affinity, respectively. Biotinylated anti-MICA antibodies were injected at a constant rate of 10 μl/min over the Sensor Chip CAP flow-cells comprising Biotin CAPture Reagent. MICA-Fc or MICA-His protein, MICB-Fc, ULBP1-Fc or ULBP2-Fc protein is then injected successively (range of concentrations between 0.01-100 nM), with regeneration between injections, and in increasing order over two flowcells simultaneously. Curves are fitted using Biacore T100 Evaluation software.
Antibody 16A8 bound MICA and MICB but not ULBP1 or ULBP2. Results are shown in FIGS. 1A, 1B, 1C and 1D for MICA, MICB, ULBP1 and ULPB2 respectively.

[4] = target: T4, MICA*001 expressed on transfected cells (human); experiment: flow cytometry, MFI against antibody concentration on C1R-MICA*01 cells
T4 construct: the cells carry the complete allele; also called C1R-MICA*001; C1R-MICA*01
T4 chain: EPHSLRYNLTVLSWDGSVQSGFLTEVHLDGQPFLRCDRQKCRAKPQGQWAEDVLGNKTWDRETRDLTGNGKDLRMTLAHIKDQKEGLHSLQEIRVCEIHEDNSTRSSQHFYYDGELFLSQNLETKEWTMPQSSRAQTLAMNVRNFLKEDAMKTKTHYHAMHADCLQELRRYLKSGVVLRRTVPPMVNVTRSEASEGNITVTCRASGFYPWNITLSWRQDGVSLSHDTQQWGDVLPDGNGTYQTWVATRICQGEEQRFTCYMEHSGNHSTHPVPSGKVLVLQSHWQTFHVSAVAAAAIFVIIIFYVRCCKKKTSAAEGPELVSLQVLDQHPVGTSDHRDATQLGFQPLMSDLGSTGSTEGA
Description: as §1, §2

B1: antibody 9C10 (antibody, V domains shown)
VH: QVQLQQPGAELVRPGTSVNLSCKASGYSFTRYWMNWVKQRPGQGLEWIGMIHPSDSETRLNQKFKDKATLTVDKSSSTAYMQLSSPTSEDSAVYYCGYGNFFYVMDYWGQGTSVTVSS
VL: DILLTQSPAILSVSPGERVSFSCRASQSIGTSIHWYQQRTNGSPRLLIKFASESISGIPSRFSGSGSGTDFTLNINSVESEDIADYYCQQSNFWPFTFGSGTKLEVK
modifications: Biotinylated when captured in the SPR assays (9C10-Biot); the sites are not given.
notes: Murine hybridoma antibody of IgG2b isotype as tested; also called 9C10-Biot
For B1, the binding result [1] was “no binding”, the EC50 [2] was 0.2 µg/mL and the Kd [3] was 0.62 pM.

B2: antibody 16A8 (antibody, V domains shown)
VH: EVQLVESGGGLVKPGGSLKLSCAASGFTFSRYAMSWVRQTPEKRLEWVATIFSGGSYTYYPDSVKGRFTISRDNANNTLYLQMSSLKAEDTAMYFCARPNWERTFDYWGQGTTLTVSS
VL: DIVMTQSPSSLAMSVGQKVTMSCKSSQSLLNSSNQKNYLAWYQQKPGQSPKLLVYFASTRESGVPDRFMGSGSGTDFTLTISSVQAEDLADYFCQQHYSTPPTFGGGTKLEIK
notes: Murine hybridoma antibody of IgG2a isotype as tested; also called 16A8-Biot
B2 was tested, and the “EC50 (read off the curve)” value [4] was about 0.3 µg/mL and the EC50 [2] was 0.31 µg/mL.
